We go through two molecules from US20200164059A1.

Experiment [1] addresses EBV gH/gL heterodimer, recombinant ectodomain (Epstein Barr virus). The experiment is described as follows: BLI kinetics, pH 7.4, ligand AMMO1Q1NHC Mab, analyte gH/gL; KD M x10^-9.
Experiment [2] has the same target. The experiment is described as follows: BLI kinetics, pH 7.4, ligand AMMO1Q1NHC Mab, analyte gH/gL; KA M^-1 x10^7. A general note: BLI is a label-free optical method that tracks binding on a fibre tip over time.
Experiment [3] has the same target. Briefly: BLI kinetics, pH 7.4, ligand AMMO1Q1NHC Mab, analyte gH/gL; kon (1/Ms) x10^5.
The target is the same in experiment [4]. The experiment is described as follows: BLI kinetics, pH 7.4, ligand AMMO1Q1NHC Mab, analyte gH/gL; koff (1/s) x10^-3.
Experiment [5] deals with T1, EBV gH/gL heterodimer, recombinant ectodomain (Epstein Barr virus). Briefly: BLI kinetics, pH 7.4, ligand gH/gL, analyte AMMO1 Fab; KD M x10^-9.
Experiment [6] concerns the target T1, EBV gH/gL heterodimer, recombinant …. Briefly: BLI kinetics, pH 7.4, ligand gH/gL, analyte AMMO1 Fab; KA M^-1 x10^7.

B1: AMMO1 containing a Q1N heavy chain mutation (antibody, V domains shown)
VH: NVQLVQSGADVKKPGASVKVSCKASGYTFIHFGISWVRQAPGQGLEWMGWIDTNNGNTNYAQSLQGRVTMTTDTSTGTAYMELRSLSTDDTAVYFCARALEMGHRSGFPFDYWGQGVLVTVSP
VL: SYELTQPPSVSVAPGQRATITCGGHNIGAKNVHWYQQKPGQAPVLVIQYDSDRPSGIPERFSGSNSGSTATLTISRVEAGDEADYYCQVWDSGRGHPLYVFGGGTKVTVL
Take B1: the Kd (usually the constant that tells how readily two partners part at equilibrium) in experiment [1] amounted to 0.16 nM. Besides, the Ka in experiment [2] stood at 6.34e+09 M⁻¹. Also, in experiment [3], the kon (commonly the rate constant with which the complex forms) worked out at 244000 M⁻¹ s⁻¹. Besides, the koff – broadly, the rate constant with which the complex falls apart – in experiment [4] was 3.85e-05 s⁻¹.

B2: AMMO1 Fab (Fab, V domains shown)
VH: QVQLVQSGADVKKPGASVKVSCKASGYTFIHFGISWVRQAPGQGLEWMGWIDTNNGNTNYAQSLQGRVTMTTDTSTGTAYMELRSLSTDDTAVYFCARALEMGHRSGFPFDYWGQGVLVTVSP
VL: SYELTQPPSVSVAPGQRATITCGGHNIGAKNVHWYQQKPGQAPVLVIQYDSDRPSGIPERFSGSNSGSTATLTISRVEAGDEADYYCQVWDSGRGHPLYVFGGGTKVTVL
modifications: not checked
As for B2, the Kd in experiment [5] stood at 0.12 nM. In addition, in experiment [6], the Ka is 8.12e+09 M⁻¹.
